# In patent US20240376171A1 (Hoffmann-La Roche, published 2024):
# How the values were obtained:
# [1] = biological target: T1, PD1 on activated human CD4 and CD8 T cells (human, UniProt Q15116 25-288); assay: flow cytometry, CD3/CD28-activated human PBMCs gated on CD3+CD8+ T cells, PE anti-human Fc secondary antibody; TA constructs pre-incubated with Matriptase, unmasked controls not
# T1 construct: whole, on cells; Endogenous PD1 on CD3/CD28-stimulated T cells; also called human PD1; PD1 receptor
# Protocol: (§1) Three formats of TA PD1-IL2v molecules and respective controls were assessed for their capacity to bind to activated PD1 positive CD8 T cells and CD4 T cells within PBMCs in comparison to the respective unmasked molecules.
# (§2) PBMCs were purchased from Biomex from a healthy donor (Lot 5000729PB). The PBMCs were stimulated for three days with CD3 and CD28 to induce upregulation of PD1 on T cells. Therefore, PBMCs were seeded in medium (RPMI1640, 10% FCS, 2 mM Glutamine) into cell culture flasks that were coated for 1 hour at 37° C. with 1 μg/ml CD3 (clone OKT3, 302914, BioLegend). CD28 was added in solution to the PBMCs at a concentration of 1 μg/ml (clone CD28.2, 302914, BioLegend). After three days, PBMCs were harvested and transferred into a 96 well round bottom plate (200′000 cells per well). The cells were washed with FACS buffer (PBS, 2% FBS, 5 mM EDTA, 0.025% NaN3) and stained with 30 μl of corresponding TA PD1-IL2v constructs in FACS buffer for 30 min at 4° C. Prior to the staining, 20 μg of the TA PD1-IL2v constructs were digested with 4 μl Matriptase (Enzo ˜2.5 U/μl, ALX-201-246-U25, Lot 12152015, or without Matriptase for the unmasked controls) for 2 hours at 37° C. in 40 μl Matriptase buffer (50 mM Tris, 50 mM NaCl, 0.01% Tween 20, pH 9.0). After the staining, the cells were washed twice with FACS buffer to remove unbound molecules. Then 30 μl of the diluted PE anti-human Fc specific secondary antibody (1:50 dilution, 109-116-170, Jackson ImmunoResearch) was added to the cells. After 30 min incubation at 4° C. the cells were washed twice with FACS buffer. To detect T cells, PBMCs were stained with 30 μl of a mixture of CD3 PE/Cyanine7 (clone UCHT1, 300420, BioLegend), CD4 FITC (clone RPA-T4, 300528, BioLegend) and CD8 APC/Cyanine7 (clone HIT8a, 300926, BioLegend) for 30 min at 4° C. The unbound antibodies were removed by washing twice with FACS buffer. Finally the cells resuspended in 150 μl FACS buffer and measured using a BD Fortessa gating on CD3+CD4+ cells (CD4 T cells) and CD3+CD8+ cells (CD8 T cells).
# [2] = biological target: T1, PD1 on activated human CD4 and CD8 T …; assay: flow cytometry, CD3/CD28-activated human PBMCs gated on CD3+CD4+ T cells, PE anti-human Fc secondary antibody; TA constructs pre-incubated with Matriptase, unmasked controls not
# Protocol: as §1, §2
# [3] = biological target: T1, PD1 on activated human CD4 and CD8 T …; assay: flow cytometry on CD3/CD28-activated T cells (CD4 and CD8) within human PBMCs; construct digested with matriptase; PE anti-human Fc secondary
# Protocol: as §2, with “Then 30 μl of the diluted PE anti-human Fc specific secondary antibody (1:50 dilution, 109-116-170, Jackson ImmunoResearch) was added to the cells. After 30 min incubation at 4° C. the cells were washed twice with FACS buffer. To detect T cells, PBMCs were stained with 30 μl of a mixture of CD3 PE/Cyanine7 (clone UCHT1, 300420, BioLegend), CD4 FITC (clone RPA-T4, 300528, BioLegend) and CD8 APC/Cyanine7 (clone HIT8a, 300926, BioLegend) for 30 min at 4° C. The unbound antibodies were removed by washing twice with FACS buffer.” left out
# [4] = biological target: T1, PD1 on activated human CD4 and CD8 T …; assay: flow cytometry on CD3/CD28-activated T cells (CD4 and CD8) within human PBMCs; no matriptase; PE anti-human Fc secondary
# Protocol: as §2, with “Then 30 μl of the diluted PE anti-human Fc specific secondary antibody (1:50 dilution, 109-116-170, Jackson ImmunoResearch) was added to the cells. After 30 min incubation at 4° C. the cells were washed twice with FACS buffer. To detect T cells, PBMCs were stained with 30 μl of a mixture of CD3 PE/Cyanine7 (clone UCHT1, 300420, BioLegend), CD4 FITC (clone RPA-T4, 300528, BioLegend) and CD8 APC/Cyanine7 (clone HIT8a, 300926, BioLegend) for 30 min at 4° C. The unbound antibodies were removed by washing twice with FACS buffer.” left out
# T1 sequence (Q15116 25-288): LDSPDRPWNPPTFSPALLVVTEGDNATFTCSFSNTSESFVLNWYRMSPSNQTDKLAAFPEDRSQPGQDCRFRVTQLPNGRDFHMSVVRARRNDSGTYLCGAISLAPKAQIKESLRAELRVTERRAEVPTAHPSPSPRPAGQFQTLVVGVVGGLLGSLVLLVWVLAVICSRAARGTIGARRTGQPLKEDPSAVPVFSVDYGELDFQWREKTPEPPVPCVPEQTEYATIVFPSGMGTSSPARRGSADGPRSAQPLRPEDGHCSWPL
EC50 (read off the curve) [1] [nM],EC50 (read off the curve) [2] [nM],"fold binding capacity versus the ""in line"" and knob/hole formats [3] [fold]","fold binding capacity versus the ""in line"" and knob/hole formats [4] [fold]",Binder
~3,~2,~2,–,"human TA PD1-IL2v, MT204, 2xPQARK, N-term (antibody, One-armed human PD1-targeted human IgG PG LALA (knobs-into-holes); MT204 scFv-masked IL2v is fused N-terminally to the hinge of the Fc knob chain, with two PQARK sites; also called P1AG9597; P1AG9597-007) light: DIVMTQSPDSLAVSLGERATINCKASESVDTSDNSFIHWYQQKPGQSPKLLIYRSSTLESGVPDRFSGSGSGTDFTLTISSLQAEDVAVYYCQQNYDVPWTFGQGTKVEIKRTVAAPSVFIFPPSDEQLKSGTASVVCLLNNFYPREAKVQWKVDNALQSGNSQESVTEQDSKDSTYSLSSTLTLSKADYEKHKVYACEVTHQGLSSPVTKSFNRGEC heavy: EVQLLESGGGLVQPGGSLRLSCAASGFSFSSYTMSWVRQAPGKGLEWVATISGGGRDIYYPDSVKGRFTISRDNSKNTLYLQMNSLRAEDTAVYYCVLLTGRVYFALDSWGQGTLVTVSSASTKGPSVFPLAPSSKSTSGGTAALGCLVKDYFPEPVTVSWNSGALTSGVHTFPAVLQSSGLYSLSSVVTVPSSSLGTQTYICNVNHKPSNTKVDKKVEPKSCDKTHTCPPCPAPEAAGGPSVFLFPPKPKDTLMISRTPEVTCVVVDVSHEDPEVKFNWYVDGVEVHNAKTKPREEQYNSTYRVVSVLTVLHQDWLNGKEYKCKVSNKALGAPIEKTISKAKGQPREPQVCTLPPSRDELTKNQVSLSCAVKGFYPSDIAVEWESNGQPENNYKTTPPVLDSDGSFFLVSKLTVDKSRWQQGNVFSCSVMHEALHNHYTQKSLSLSPG not shown"
~2,~1,–,~2,"human PD1-IL2v, unmasked, N-term (antibody, human IgG1, kappa, L234A L235A, One-armed human PD1-targeted human IgG PG LALA with IL2v fused N-terminally to the hinge of the Fc knob chain (non-masked control); also called P1AG3071; P1AG3071-004) light: DIVMTQSPDSLAVSLGERATINCKASESVDTSDNSFIHWYQQKPGQSPKLLIYRSSTLESGVPDRFSGSGSGTDFTLTISSLQAEDVAVYYCQQNYDVPWTFGQGTKVEIKRTVAAPSVFIFPPSDEQLKSGTASVVCLLNNFYPREAKVQWKVDNALQSGNSQESVTEQDSKDSTYSLSSTLTLSKADYEKHKVYACEVTHQGLSSPVTKSFNRGEC heavy: EVQLLESGGGLVQPGGSLRLSCAASGFSFSSYTMSWVRQAPGKGLEWVATISGGGRDIYYPDSVKGRFTISRDNSKNTLYLQMNSLRAEDTAVYYCVLLTGRVYFALDSWGQGTLVTVSSASTKGPSVFPLAPSSKSTSGGTAALGCLVKDYFPEPVTVSWNSGALTSGVHTFPAVLQSSGLYSLSSVVTVPSSSLGTQTYICNVNHKPSNTKVDKKVEPKSCDKTHTCPPCPAPEAAGGPSVFLFPPKPKDTLMISRTPEVTCVVVDVSHEDPEVKFNWYVDGVEVHNAKTKPREEQYNSTYRVVSVLTVLHQDWLNGKEYKCKVSNKALGAPIEKTISKAKGQPREPQVCTLPPSRDELTKNQVSLSCAVKGFYPSDIAVEWESNGQPENNYKTTPPVLDSDGSFFLVSKLTVDKSRWQQGNVFSCSVMHEALHNHYTQKSLSLSPGK not shown"
